In PMC6022668, “Biallelic UFM1 and UFC1 mutations expand the essential role of ufmylation in brain development” (Brain, 2018):
Positions count from the first letter of the chain named. In names and notes the source's numbering stands. Blank lines part the entries; values can stand above or below the binder they belong to.

Target: T1, GST-UBA5 (UniProt Q9GZZ9 1-404)
T1 construct: also called E1-like enzyme for ufmylation; source: recombinant, E. coli, purified on Glutathione Sepharose 4B (GST kept)
T1 sequence (Q9GZZ9 whole entry): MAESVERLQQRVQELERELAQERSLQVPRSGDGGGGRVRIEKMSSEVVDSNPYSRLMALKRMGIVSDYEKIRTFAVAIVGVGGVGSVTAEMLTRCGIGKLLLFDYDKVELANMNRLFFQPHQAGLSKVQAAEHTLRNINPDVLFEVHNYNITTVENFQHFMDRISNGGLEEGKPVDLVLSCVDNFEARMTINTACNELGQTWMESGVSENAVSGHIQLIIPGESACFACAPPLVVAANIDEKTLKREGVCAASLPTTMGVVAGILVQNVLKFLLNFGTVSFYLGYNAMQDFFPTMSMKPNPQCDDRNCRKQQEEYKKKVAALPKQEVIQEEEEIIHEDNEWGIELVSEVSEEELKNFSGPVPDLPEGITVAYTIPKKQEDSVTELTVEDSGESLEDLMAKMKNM
Assay: pull-down; GST-UBA5 bound to Glutathione Sepharose 4B, incubated 20 min at 4°C with purified proteins in 20 mM Tris-Cl pH 7.5, 150 mM NaCl, 1 mM EDTA, 1 mM DTT, 0.05% Nonidet P-40; NuPAGE and Coomassie staining
Conditions: both partners purified

binding result: binds
B1: UFC1 (wild type, recombinant) (enzyme, human, UniProt Q9Y3C8 1-167, looked up)
chain: MADEATRRVVSEIPVLKTNAGPRDRELWVQRLKEEYQSLIRYVENNKNADNDWFRLESNKEGTRWFGKCWYIHDLLKYEFDIEFDIPITYPTTAPEIAVPELDGKTAKMYRGGKICLTDHFKPLWARNVPKFGLAHLMALGLGPWLAVEIPDLIQKGVIQHKEKCNQ
notes: UFC1, human, the E2-like conjugating enzyme of UFM1; also called E2-like enzyme for ufmylation; source: recombinant, E. coli, purified on Glutathione Sepharose 4B, GST removed by PreScission protease

binding result: binds
B2: UFC1 T106I (recombinant) (enzyme, human, UniProt Q9Y3C8 1-167, looked up)
chain: B1 chain with T106I
notes: UFC1, human, with the patients' homozygous variant c.317C>T p.(Thr106Ile); A variant found in patients; also called p.(Thr106Ile); source: recombinant, E. coli, purified on Glutathione Sepharose 4B, GST removed by PreScission protease
